Results: the supplement of paper PMC11246515
± gives the standard deviation of the averaged measurements.

Experiment: total protein half-life in vivo (active degradation + dilution); higher = more stable protein
[1] = E. coli NCM3722 delta-smpB, growth: N-lim chemostat, doubling time 6 h
[2] = E. coli NCM3722 delta-clpP delta-lon delta-hslV, growth: N-lim chemostat, doubling time 6 h
[3] = E. coli NCM3722 delta-clpP, growth: N-lim chemostat, doubling time 6 h
[4] = E. coli NCM3722 delta-hslV, growth: N-lim chemostat, doubling time 6 h
[5] = E. coli NCM3722 delta-lon, growth: N-lim chemostat, doubling time 6 h
[6] = wild type E. coli NCM3722, growth: C-lim chemostat, doubling time 3 h
[7] = wild type E. coli NCM3722, growth: C-lim chemostat, doubling time 12 h
[8] = wild type E. coli NCM3722, growth: N-lim chemostat, doubling time 6 h
[9] = wild type E. coli NCM3722, growth: N-lim chemostat, doubling time 12 h
[10] = wild type E. coli NCM3722, growth: P-lim chemostat, doubling time 12 h
[11] = wild type E. coli NCM3722, growth: C-lim chemostat, doubling time 6 h
[12] = wild type E. coli NCM3722, growth: P-lim chemostat, doubling time 6 h

Sequence	total protein half-life in vivo [1] [h]	total protein half-life in vivo [2] [h]	total protein half-life in vivo [3] [h]	total protein half-life in vivo [4] [h]	total protein half-life in vivo [5] [h]	total protein half-life in vivo [6] [h]	total protein half-life in vivo [7] [h]	total protein half-life in vivo [8] [h]	total protein half-life in vivo [9] [h]	total protein half-life in vivo [10] [h]	total protein half-life in vivo [11] [h]	total protein half-life in vivo [12] [h]
MSNIWSKEETLWSFALYGTAVGAGTLFLPIQLGSAGAVVLFITALVAWPLTYWPHKALCQFILSSKTSAGEGITGAVTHYYGKKIGNLITTLYFIAFFVVVLIYAVAITNSLTEQLAKHMVIDLRIRMLVSLGVVLILNLIFLMGRHATIRVMGFLVFPLIAYFLFLSIYLVGSWQPDLLTTQVEFNQNTLHQIWISIPVMVFAFSHTPIISTFAIDRREKYGEHAMDKCKKIMKVAYLIICISVLFFVFSCLLSIPPSYIEAAKEEGVTILSALSMLPNAPAWLSISGIIVAVVAMSKSFLGTYFGVIEGATEVVKTTLQQVGVKKSRAFNRALSIMLVSLITFIVCCINPNAISMIYAISGPLIAMILFIMPTLSTYLIPALKPWRSIGNLITLIVGILCVSVMFFS	5.13											
MSNKMTGLVKWFNADKGFGFISPVDGSKDVFVHFSAIQNDNYRTLFEGQKVTFSIESGAKGPAAANVIITD		0.427 ± 0.069	0.486 ± 0.036	0.454	0.617 ± 0.26	2.03	0.407	0.537	0.434	1.16		
MSNLAAMLRLPANLKSTQWQILAGPILILLILSMMVLPLPAFILDLLFTFNIALSIMVLLVAMFTQRTLEFAAFPTILLFTTLLRLALNVASTRIILMEGHTGAAAAGKVVEAFGHFLVGGNFAIGIVVFVILVIINFMVITKGAGRIAEVGARFVLDGMPGKQMAIDADLNAGLIGEDEAKKRRSEVTQEADFYGSMDGASKFVRGDAIAGILIMVINIVGGLLVGVLQHGMSMGHAAESYTLLTIGDGLVAQIPALVISTAAGVIVTRVSTDQDVGEQMVNQLFSNPSVMLLSAAVLGLLGLVPGMPNLVFLLFTAGLLGLAWWIRGREQKAPAEPKPVKMAENNTVVEATWNDVQLEDSLGMEVGYRLIPMVDFQQDGELLGRIRSIRKKFAQEMGFLPPVVHIRDNMDLQPARYRILMKGVEIGSGDAYPGRWLAINPGTAAGTLPGEATVDPAFGLNAIWIESALKEQAQIQGYTVVEASTVVATHLNHLISQHAAELFGRQEAQQLLDRVAQEMPKLTEDLVPGVVTLTTLHKVLQNLLDEKVPIRDMRTILETLAEHAPIQSDPHELTAVVRVALGRAITQQWFPGKDEVHVIGLDTPLERLLLQALQGGGGLEPGLADRLLAQTQEALSRQEMLGAPPVLLVNHALRPLLSRFLRRSLPQLVVLSNLELSDNRHIRMTATIGGK						2.13 ± 0.33	8.63			14.5	3.87	
MSNLSPDFVLPENFCANPQEAWTIPARFYTDQNAFEHEKENVFAKSWICVAHSSELANANDYVTREIIGESIVLVRGRDKVLRAFYNVCPHRGHQLLSGEGKAKNVITCPYHAWAFKLDGNLAHARNCENVANFDSDKAQLVPVRLEEYAGFVFINMDPNATSVEDQLPGLGAKVLEACPEVHDLKLAARFTTRTPANWKNIVDNYLECYHCGPAHPGFSDSVQVDRYWHTMHGNWTLQYGFAKPSEQSFKFEEGTDAAFHGFWLWPCTMLNVTPIKGMMTVIYEFPVDSETTLQNYDIYFTNEELTDEQKSLIEWYRDVFRPEDLRLVESVQKGLKSRGYRGQGRIMADSSGSGISEHGIAHFHNLLAQVFKD [P0ABR7]						0.182						
MSNLTGTDKSVILLMTIGEDRAAEVFKHLSQREVQTLSAAMANVTQISNKQLTDVLAEFEQEAEQFAALNINANDYLRSVLVKALGEERAASLLEDILETRDTASGIETLNFMEPQSAADLIRDEHPQIIATILVHLKRAQAADILALFDERLRHDVMLRIATFGGVQPAALAELTEVLNGLLDGQNLKRSKMGGVRTAAEIINLMKTQQEEAVITAVREFDGELAQKIIDEMFLFENLVDVDDRSIQRLLQEVDSESLLIALKGAEQPLREKFLRNMSQRAADILRDDLANRGPVRLSQVENEQKAILLIVRRLAETGEMVIGSGEDTYV [P0ABZ1]		4.83	5.19			2.31 ± 0.33	5.85 ± 0.23				3.78 ± 0.1	
MSNLTYLQGYPEQLLSQVRTLINEQRLGDVLAKRYPGTHDYATDKALWQYTQDLKNQFLRNAPPINKVMYDNKIHVLKNALGLHTAVSRVQGGKLKAKVEIRVATVFRNAPEPFLRMIVVHELAHLKEKEHNKAFYQLCCHMEPQYHQLEFDTRLWLTQLSLGQNKI	1.71	5.45 ± 0.29	1.98 ± 0.15	1.16		3.09	5.13	1.78	1.54 ± 0.21	2.74 ± 0.62	1.64 ± 0.58	1.84 ± 0.49
MSNNGSSPLVLWYNQLGMNDVDRVGGKNASLGEMITNLSGMGVSVPNGFATTADAFNQFLDQSGVNQRIYELLDKTDIDDVTQLAKAGAQIRQWIIDTPFQPELENAIREAYAQLSADDENASFAVRSSATAEDMPDASFAGQQETFLNVQGFDAVLVAVKHVFASLFNDRAISYRVHQGYDHRGVALSAGVQRMVRSDLASSGVMFSIDTESGFDQVVFITSAWGLGEMVVQGAVNPDEFYVHKPTLAANRPAIVRRTMGSKKIRMVYAPTQEHGKQVKIEDVPQEQRDIFSLTNEEVQELAKQAVQIEKHYGRPMDIEWAKDGHTGKLFIVQARPETVRSRGQVMERYTLHSQGKIIAEGRAIGHRIGAGPVKVIHDISEMNRIEPGDVLVTDMTDPDWEPIMKKASAIVTNRGGRTCHAAIIARELGIPAVVGCGDATERMKDGENVTVSCAEGDTGYVYAELLEFSVKSSSVETMPDLPLKVMMNVGNPDRAFDFACLPNEGVGLARLEFIINRMIGVHPRALLEFDDQEPQLQNEIREMMKGFDSPREFYVGRLTEGIATLGAAFYPKRVIVRLSDFKSNEYANLVGGERYEPDEENPMLGFRGAGRYVSDSFRDCFALECEAVKRVRNDMGLTNVEIMIPFVRTVDQAKAVVEELARQGLKRGENGLKIIMMCEIPSNALLAEQFLEYFDGFSIGSNDMTQLALGLDRDSGVVSELFDERNDAVKALLSMAIRAAKKQGKYVGICGQGPSDHEDFAAWLMEEGIDSLSLNPDTVVQTWLSLAELKK	4.21 ± 0.38	4.83 ± 0.48	4.47 ± 0.29	4.6 ± 0.19	4.853 ± 0.045	3.08 ± 0.22	10.1 ± 1	4.5 ± 0.17	7.03 ± 0.19	11.7 ± 0.34	5.77 ± 0.31	5.9 ± 0.38
